Positions count from the first letter of the chain named. Names may count otherwise.
B1: myc-tagged β-catenin S191A (natural protein, UniProt P35222 1-781, looked up)
chain: MATQADLMELDMAMEPDRKAAVSHWQQQSYLDSGIHSGATTTAPSLSGKGNPEEEDVDTSQVLYEWEQGFSQSFTQEQVADIDGQYAMTRAQRVRAAMFPETLDEGMQIPSTQFDAAHPTNVQRLAEPSQMLKHAVVNLINYQDDAELATRAIPELTKLLNDEDQVVVNKAAVMVHQLSKKEASRHAIMRAPQMVSAIVRTMQNTNDVETARCTAGTLHNLSHHREGLLAIFKSGGIPALVKMLGSPVDSVLFYAITTLHNLLLHQEGAKMAVRLAGGLQKMVALLNKTNVKFLAITTDCLQILAYGNQESKLIILASGGPQALVNIMRTYTYEKLLWTTSRVLKVLSVCSSNKPAIVEAGGMQALGLHLTDPSQRLVQNCLWTLRNLSDAATKQEGMEGLLGTLVQLLGSDDINVVTCAAGILSNLTCNNYKNKMMVCQVGGIEALVRTVLRAGDREDITEPAICALRHLTSRHQEAEMAQNAVRLHYGLPVVVKLLHPPSHWPLIKATVGLIRNLALCPANHAPLREQGAIPRLVQLLVRAHQDTQRRTSMGGTQQQFVEGVRMEEIVEGCTGALHILARDVHNRIVIRGLNTIPLFVQLLYSPIENIQRVAAGVLCELAQDKEAAEAIEAEGATAPLTELLHSRNEGVATYAAAVLFRMSEDKPQDYKKRLSVELTSSLFRTEPMAWNETADLGLDIGAQGEPLGYRQDDPSYRSFHSGGYGQDALGMDPMMEHEMGGHHPGADYPVDGLPDLGHAQDLMDGLPPGDSNQLAWFDTDL
notes: from the Long laboratory (Wu et al., 2008); also called pmyc-β-catenin-S191A; source: NIH 3T3, transfected, in lysate and in fixed cells
B2: myc-tagged β-catenin S605A (natural protein, UniProt P35222 1-781, looked up)
chain: B1 chain with A191S, S605A
notes: from the Long laboratory (Wu et al., 2008); also called pmyc-β-catenin-S605A; source: NIH 3T3, transfected, in lysate and in fixed cells

Target: T1, HA-tagged LEF-1 (UniProt Q9UJU2 1-399)
T1 construct: LEF-1 (lymphoid enhancer factor 1); written both HA-LEF-1 and LEF-1-HA; also called pHA-LEF-1; HA-LEF-1; source: HEK293, transfected, in lysate; NIH 3T3, transfected, in lysate and in fixed cells
T1 sequence (Q9UJU2 whole entry): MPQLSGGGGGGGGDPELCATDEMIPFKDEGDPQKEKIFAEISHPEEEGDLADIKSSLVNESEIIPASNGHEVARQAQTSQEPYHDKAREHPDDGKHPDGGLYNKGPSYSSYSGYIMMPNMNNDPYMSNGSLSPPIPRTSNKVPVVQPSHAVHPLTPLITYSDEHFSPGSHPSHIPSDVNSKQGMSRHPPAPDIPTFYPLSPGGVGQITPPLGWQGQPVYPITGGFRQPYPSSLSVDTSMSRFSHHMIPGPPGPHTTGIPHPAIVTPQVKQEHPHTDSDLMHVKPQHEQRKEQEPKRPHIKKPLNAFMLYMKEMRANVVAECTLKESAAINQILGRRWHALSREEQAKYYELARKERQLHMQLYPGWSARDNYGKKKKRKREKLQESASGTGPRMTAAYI
Assay: co-IP; NIH 3T3 lysates, pLEF-1-HA co-transfected with pβ-catenin-myc constructs; IP with HA mAb or isotype control IgG, blot with anti-myc; densitometry over three independent experiments
Details: partners not purified

| Binder | reduction in binding relative to β-catenin-WT (densitometry of the co-IP) |
| --- | --- |
| B1 | ~20% |
| B2 | ~50% |

From paper PMC4657330, “Rac1 augments Wnt signaling by stimulating β-catenin–lymphoid enhancer factor-1 complex assembly independent of β-catenin nuclear import” (Journal of Cell Science, 2015)
